Results from patent US20160200782A1 (MOERAE MATRIX, published 2016).

T1: Fms(Y969C)(h) (human, UniProt P07333 538-972, limits assumed)
T1 sequence (looked up): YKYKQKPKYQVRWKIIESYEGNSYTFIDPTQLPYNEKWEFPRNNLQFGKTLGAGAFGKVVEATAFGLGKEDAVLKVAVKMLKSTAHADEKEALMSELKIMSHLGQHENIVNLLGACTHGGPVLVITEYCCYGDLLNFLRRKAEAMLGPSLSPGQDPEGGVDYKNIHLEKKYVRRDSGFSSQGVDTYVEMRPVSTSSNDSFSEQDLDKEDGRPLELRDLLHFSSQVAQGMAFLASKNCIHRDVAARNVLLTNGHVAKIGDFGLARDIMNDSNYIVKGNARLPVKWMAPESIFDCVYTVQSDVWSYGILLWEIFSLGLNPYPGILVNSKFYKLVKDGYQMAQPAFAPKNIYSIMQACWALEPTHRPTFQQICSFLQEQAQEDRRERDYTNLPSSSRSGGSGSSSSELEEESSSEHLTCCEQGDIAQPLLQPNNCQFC

T2: PKCε(h) (human, UniProt Q02156 1-737)
T2 sequence (looked up): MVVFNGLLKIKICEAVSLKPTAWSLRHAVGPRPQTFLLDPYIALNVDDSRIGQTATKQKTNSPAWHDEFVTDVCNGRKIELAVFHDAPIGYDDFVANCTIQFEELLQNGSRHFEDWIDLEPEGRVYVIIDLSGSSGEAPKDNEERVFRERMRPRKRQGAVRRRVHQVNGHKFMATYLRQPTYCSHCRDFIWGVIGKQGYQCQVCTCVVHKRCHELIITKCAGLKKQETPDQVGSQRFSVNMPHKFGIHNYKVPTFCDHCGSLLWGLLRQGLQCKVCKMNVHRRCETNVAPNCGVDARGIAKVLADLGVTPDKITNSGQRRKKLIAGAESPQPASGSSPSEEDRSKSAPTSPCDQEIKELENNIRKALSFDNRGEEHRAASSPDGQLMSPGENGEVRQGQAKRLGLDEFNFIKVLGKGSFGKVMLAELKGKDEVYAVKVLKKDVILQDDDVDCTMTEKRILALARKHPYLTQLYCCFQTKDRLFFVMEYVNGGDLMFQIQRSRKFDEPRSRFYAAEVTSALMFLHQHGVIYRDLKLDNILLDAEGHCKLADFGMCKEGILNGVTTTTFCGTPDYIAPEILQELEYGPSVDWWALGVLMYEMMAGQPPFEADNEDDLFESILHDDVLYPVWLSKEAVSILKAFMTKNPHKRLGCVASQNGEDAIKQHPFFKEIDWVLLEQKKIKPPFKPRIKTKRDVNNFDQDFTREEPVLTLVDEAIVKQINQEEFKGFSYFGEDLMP

T3: Rse(h) (human, UniProt Q06418 451-890, limits assumed)
T3 sequence (looked up): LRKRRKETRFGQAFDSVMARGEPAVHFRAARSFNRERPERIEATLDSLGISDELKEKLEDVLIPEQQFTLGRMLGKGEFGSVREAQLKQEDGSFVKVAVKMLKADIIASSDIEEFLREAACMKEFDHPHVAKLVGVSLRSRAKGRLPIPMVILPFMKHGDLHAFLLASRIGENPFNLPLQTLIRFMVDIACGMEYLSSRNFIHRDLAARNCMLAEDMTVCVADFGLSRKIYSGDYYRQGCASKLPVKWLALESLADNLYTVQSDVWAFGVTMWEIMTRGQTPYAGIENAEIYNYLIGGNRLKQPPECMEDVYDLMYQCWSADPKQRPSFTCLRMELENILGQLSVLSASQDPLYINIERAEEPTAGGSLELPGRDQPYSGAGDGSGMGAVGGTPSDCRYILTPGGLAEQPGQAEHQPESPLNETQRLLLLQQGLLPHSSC

T4: SGK2(h) (human, UniProt Q9HBY8 1-367, limits assumed)
T4 sequence (looked up): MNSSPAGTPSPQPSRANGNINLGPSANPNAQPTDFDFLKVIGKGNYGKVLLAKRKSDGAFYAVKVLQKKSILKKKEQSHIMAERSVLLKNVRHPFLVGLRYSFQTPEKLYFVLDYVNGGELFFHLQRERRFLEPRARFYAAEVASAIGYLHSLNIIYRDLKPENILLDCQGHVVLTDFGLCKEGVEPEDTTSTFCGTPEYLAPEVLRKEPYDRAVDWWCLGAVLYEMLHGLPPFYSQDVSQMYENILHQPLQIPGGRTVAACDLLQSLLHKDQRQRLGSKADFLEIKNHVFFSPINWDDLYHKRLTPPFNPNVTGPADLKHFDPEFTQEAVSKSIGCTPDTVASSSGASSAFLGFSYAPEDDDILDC


Legend:
Assay in all cases: cell-based or functional assay
[1] = biological target: T1, Fms(Y969C)(h)
[2] = biological target: MEK1(h) (human, UniProt Q02750 1-393, limits assumed)
[3] = biological target: MELK(h) (human, UniProt Q14680 1-340, limits assumed)
[4] = biological target: Met(Y1248C)(h) (human, UniProt P08581-2 974-1408, limits assumed)
[5] = biological target: T2, PKCε(h)
[6] = biological target: Pyk2(h) (human, UniProt Q14289 1-1009, limits assumed)
[7] = biological target: T3, Rse(h)
[8] = biological target: T4, SGK2(h)
[9] = biological target: ZIPK(h) (human, UniProt O43293 1-454, limits assumed)
[10] = biological target: CaMKIIβ(h) (human, UniProt Q13554 1-666, limits assumed)
[11] = biological target: CDK7/cyclinH/MAT1(h) (human, UniProt P50613 1-346; P51946 1-323; P51948 1-309)
[12] = biological target: EGFR(T790M,L858R)(h) (human, UniProt P00533 696-1210, limits assumed)
Also: test concentration or dose not given here.

% activity [1] [%]	% activity [2] [%]	% activity [3] [%]	% activity [4] [%]	% activity [5] [%]	% activity [6] [%]	% activity [7] [%]	% activity [8] [%]	% activity [9] [%]	% activity [10] [%]	% activity [11] [%]	% activity [12] [%]	Binder
91	77	17	36	59	34	89	98	13	11	47	78	KAFAKLAARLYRKALARQLGVAA [MMI-0400]
72	77	16	84	79	47	88	56	28	2	65	85	FAKLAARLYRKALARQLGVAA [MMI-0300]
